Test results published in patent US20260250410A1 (SICHUAN HUIYU PHARMACEUTICAL, published 2026).

B1: 1CP-151 (antibody, human IgG1, kappa, V domains shown)
VH: EVQLVESGGGLVQPGRSLRLSCTASGLTFTHYHMSWFRQAPGKGLEWVAIIRNKAYGYTTDYSASVRGRFTISRDDSKSILYLQMNSLKTEDTAVYYCVREGGYGYDGTFAYWGQGTLVTVSS
VL: DIQMTQSPSSLSASVGDRVTITCRASESVDNYGISFMNWFQQKPGQAPKLLIYAASNQGSGVPSRFSGSGSGTDFTLTISSMQPEDFATYYCQQSKEVPRTFGGGTKVEIKR
notes: humanized 8C9, human IgG1 kappa
B2: 1CP-155 (antibody, human IgG1, kappa, V domains shown)
VH: EVQLVESGGGLVQPGRSLRLSCTASGLTFTHYHMSWFRQAPGKGLEWVAIIRNKAYGYTTDYSASVRGRFTISRDDSKSILYLQMNSLKTEDTAVYYCVREGGYGYDGTFAYWGQGTLVTVSS
VL: DIQMTQSPSSLSASVGDRVTITCRASESVDNYGISFMNWFQQKPGQPPKLLIYAASNQGSGVPSRFSGSGSGTDFTLTISSMQPEDFATYYCQQSKEVPRTFGGGTKVEIKR
notes: as for B1
B3: 1CP-153 (antibody, human IgG1, kappa, V domains shown)
VH: EVQLVESGGGLVQPGRSLRLSCTTSGLTFTHYHMSWVRQAPGKGPEWVAIIRNKAYGYTTDYSASVRGRFTISRDDSKSILYLQMNSLKTEDTAVYYCVREGGYGYDGTFAYWGQGTLVTVSS
VL: DIQMTQSPSSLSASVGDRVTITCRASESVDNYGISFMNWFQQKPGQAPKLLIYAASNQGSGVPSRFSGSGSGTDFTLTISSMQPEDFATYYCQQSKEVPRTFGGGTKVEIKR
notes: as for B1
B4: 1CP-154 (antibody, human IgG1, kappa, V domains shown)
VH: EVQLVESGGGLVQPGRSLRLSCTTSGLTFTHYHMSWVRQPPGKAPEWVAIIRNKAYGYTTDYSASVRGRFTISRDDSKSILYLQMNSLKTEDTAVYYCVREGGYGYDGTFAYWGQGTLVTVSS
VL: DIQMTQSPSSLSASVGDRVTITCRASESVDNYGISFMNWFQQKPGQAPKLLIYAASNQGSGVPSRFSGSGSGTDFTLTISSMQPEDFATYYCQQSKEVPRTFGGGTKVEIKR
notes: as for B1
B5: 1CP-159 (antibody, human IgG1, kappa, V domains shown)
VH: EVQLVESGGGLVQPGRSLRLSCTASGLTFTHYHMSWFRQAPGKGLEWVAIIRNKAYGYTTDYSASVRGRFTISRDDSKSILYLQMNSLKTEDTAVYYCVREGGYGYDGTFAYWGQGTLVTVSS
VL: DIQMTQSPSSLSASVGDRVTITCRASESVDNYGISFMNWFQQKPGQPPKLLIYAASNQGSGVPSRFSGSGSGTDFTLTISSMQPEDFATYFCQQSKEVPRTFGGGTKVEIKR
notes: as for B1
B6: 1CP-162 (antibody, human IgG1, kappa, V domains shown)
VH: EVQLVESGGGLVQPGRSLRLSCTTSGLTFTHYHMSWVRQPPGKAPEWVAIIRNKAYGYTTDYSASVRGRFTISRDDSKSILYLQMNSLKTEDTAVYYCVREGGYGYDGTFAYWGQGTLVTVSS
VL: DIQMTQSPSSLSASVGDRVTITCRASESVDNYGISFMNWFQQKPGQPPKLLIYAASNQGSGVPSRFSGSGSGTDFTLTISSMQPEDFATYFCQQSKEVPRTFGGGTKVEIKR
notes: as for B1
B7: 1CP-161 (antibody, human IgG1, kappa, V domains shown)
VH: EVQLVESGGGLVQPGRSLRLSCTTSGLTFTHYHMSWVRQAPGKGPEWVAIIRNKAYGYTTDYSASVRGRFTISRDDSKSILYLQMNSLKTEDTAVYYCVREGGYGYDGTFAYWGQGTLVTVSS
VL: DIQMTQSPSSLSASVGDRVTITCRASESVDNYGISFMNWFQQKPGQPPKLLIYAASNQGSGVPSRFSGSGSGTDFTLTISSMQPEDFATYFCQQSKEVPRTFGGGTKVEIKR
notes: as for B1
B8: 1CP-158 (antibody, human IgG1, kappa, V domains shown)
VH: EVQLVESGGGLVQPGRSLRLSCTTSGLTFTHYHMSWVRQPPGKAPEWVAIIRNKAYGYTTDYSASVRGRFTISRDDSKSILYLQMNSLKTEDTAVYYCVREGGYGYDGTFAYWGQGTLVTVSS
VL: DIQMTQSPSSLSASVGDRVTITCRASESVDNYGISFMNWFQQKPGQPPKLLIYAASNQGSGVPSRFSGSGSGTDFTLTISSMQPEDFATYYCQQSKEVPRTFGGGTKVEIKR
notes: as for B1
B9: 1CP-160 (antibody, human IgG1, kappa, V domains shown)
VH: EVQLVESGGGLVQPGRSLRLSCTTSGLTFTHYHMSWVRQAPGKGLEWVAIIRNKAYGYTTDYSASVRGRFTISRDDSKSILYLQMNSLKTEDTAVYYCVREGGYGYDGTFAYWGQGTLVTVSS
VL: DIQMTQSPSSLSASVGDRVTITCRASESVDNYGISFMNWFQQKPGQPPKLLIYAASNQGSGVPSRFSGSGSGTDFTLTISSMQPEDFATYFCQQSKEVPRTFGGGTKVEIKR
notes: as for B1
B10: 8E5-MMAE (antibody, V domains shown)
VH: EVQLKESGPELKKPGETVKISCKASGYTLTDFSMHWLKQAPGKGLKWMGWINTETGAPTYADDFKGRFALSLDTSANTAYLQINNLKNEDTATYFCSRGRDYDPHFDYWGQGTTVTVSS
VL: EIVLTQSPATLSVTPGDRVSLSCRASQSISDFLHWYQQRSHESPRLLIKYASQSISGIPSRFGGSGSGSDFTLNINTVEPEDVGMYYCQSAHSFPYTFGGGTKLEIK
modifications: vc-MMAE coupled after reduction, sites not stated; DAR 3.65
B11: 10D2-MMAE (antibody, V domains shown)
VH: EVQLQQSGPELKKPGETVKISCKASGYTFTDYSMHWVKQAPGKGLKWMGWINTETGQPTYADDFKGRFAFSLETSASSAYLQINNLKNEDTATYFCTRTFYYDYVGDYWGQGTTVTVSS
VL: DIVMTQSHKFMSTSVGDRVSITCKASQDVSTAVAWYRQKPGQSPKLLIYWASTRHTGVPDRLTGSGSGTDFALTINSVQAEDLALYYCQQHSSTPYTFGGGTKLEIK
modifications: vc-MMAE coupled after reduction, sites not stated; DAR 3.5
B12: 3C11-MMAE (antibody, V domains shown)
VH: EVQLQQSGTVLARPGASVKMSCKASGYNFISYWLHWIKQRPGQGLEWIGGIYPGNTDTTYNQKFKGKAKVTAVTSATTAYMELSSLTNEDSAVYYCIRYDYDRGMDYWGQGTTVTVSS
VL: DIQMTQSPSSFSVSLGDRVTITCRASEDIYYRLAWYQQKPGNAPRLLISGATALETGVPSRFSGSGSGKDYTLSITSLQTEDVATYYCQHYWNIPWTFGGGTKLEIK
modifications: vc-MMAE coupled after reduction, sites not stated; DAR 3.48
B13: 5B8-MMAE (antibody, V domains shown)
VH: EVQLKESGGGLVQPGGSLRISCATSGLTFTHYHMSWVRQPPGKAPEWLAIIRNKAYGYTTDYSASVRGRFTISRDDSQSILYLQMNTLRAEDSATYYCVREGGYGYDGTFAYWGQGTTVTVSS
VL: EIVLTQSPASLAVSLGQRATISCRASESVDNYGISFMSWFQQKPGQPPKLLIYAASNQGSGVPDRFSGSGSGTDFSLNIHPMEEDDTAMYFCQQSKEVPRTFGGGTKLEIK
modifications: vc-MMAE coupled after reduction, sites not stated; DAR 3.85
B14: 8C9-MMAE (antibody, V domains shown)
VH: EVQLKESGGGLVQPGGSLRISCATSGLTFTHYHMSWVRQPPGKAPEWLAIIRNKAYGYTTDYSASVRGRFTISRDDSQSILYLQMNTLRPEDSATYYCVREGGYGYDGTFAYWGQGTTVTVSS
VL: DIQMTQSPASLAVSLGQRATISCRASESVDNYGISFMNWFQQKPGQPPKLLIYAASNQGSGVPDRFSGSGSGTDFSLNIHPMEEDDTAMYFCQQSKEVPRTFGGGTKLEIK
modifications: vc-MMAE coupled after reduction, sites not stated; DAR 3.44

The binders below were run against T1, HuCDCP1-C (human, UniProt Q9H5V8 30-667) (assay: SPR (Caterra), antigen immobilized).
T1 construct: range 30-667; expressed in HEK-293T, purified by Fc/his tag; also called human CDCP1-C; full-length extracellular domain of human CDCP1; not shown: Fc or his tag
T1 sequence (looked up): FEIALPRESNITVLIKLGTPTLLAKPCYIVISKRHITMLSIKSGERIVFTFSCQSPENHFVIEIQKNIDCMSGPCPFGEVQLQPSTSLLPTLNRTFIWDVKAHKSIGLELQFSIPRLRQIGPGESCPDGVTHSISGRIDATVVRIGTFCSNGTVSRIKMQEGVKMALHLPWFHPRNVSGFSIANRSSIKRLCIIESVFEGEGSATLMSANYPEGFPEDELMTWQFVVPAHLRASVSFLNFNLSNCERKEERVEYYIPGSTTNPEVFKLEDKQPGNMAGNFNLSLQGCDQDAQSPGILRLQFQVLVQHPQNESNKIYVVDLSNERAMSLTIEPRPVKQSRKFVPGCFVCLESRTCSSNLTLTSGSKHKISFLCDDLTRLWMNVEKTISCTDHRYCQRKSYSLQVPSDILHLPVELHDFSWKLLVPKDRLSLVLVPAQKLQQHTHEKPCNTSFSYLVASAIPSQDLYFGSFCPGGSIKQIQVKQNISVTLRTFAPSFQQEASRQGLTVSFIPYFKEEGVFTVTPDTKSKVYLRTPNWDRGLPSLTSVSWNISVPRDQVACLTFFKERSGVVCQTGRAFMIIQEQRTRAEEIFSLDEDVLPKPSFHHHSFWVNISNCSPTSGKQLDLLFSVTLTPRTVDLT
Description: The humanized anti-CDCP1 antibodies obtained from Example 11 were subjected to gene cloning, constructed into pTT5 expression vector for a small amount of expression in CHO cells (Expi-CHOS: Gibco A29127), and purified with an Fc affinity column (AT Protein A Diamond Plus. No. AA402312). Antibody purity was analyzed by HPLC and determined by Nanodrop. High-throughput affinity assay was carried out for a small amount of antibodies by Caterra.
B1 showed a Kd of 19.1 nM, a koff of 0.00302 s⁻¹ and a kon of 158000 M⁻¹ s⁻¹. B2 gave a Kd of 36.6 nM, a koff of 0.000579 s⁻¹ and a kon of 15800 M⁻¹ s⁻¹. Binder B3 has a Kd of 3.58 nM, a koff of 0.000388 s⁻¹ and a kon of 108000 M⁻¹ s⁻¹. B4 showed a Kd of 2.92 nM, a koff of 0.000346 s⁻¹ and a kon of 118000 M⁻¹ s⁻¹. Work on B5 yielded a Kd of 42.5 nM, a koff of 0.000767 s⁻¹ and a kon of 18000 M⁻¹ s⁻¹. B6 showed a Kd of 2.7 nM, a koff of 0.000305 s⁻¹ and a kon of 113000 M⁻¹ s⁻¹. B7 gave a Kd of 3.21 nM, a koff of 0.000365 s⁻¹ and a kon of 114000 M⁻¹ s⁻¹. B8 gave a Kd of 2.96 nM, a koff of 0.000321 s⁻¹ and a kon of 109000 M⁻¹ s⁻¹. For B9, the Kd was 3.8 nM, the koff was 0.00042 s⁻¹ and the kon was 110000 M⁻¹ s⁻¹.

Each binder was assayed against T2, human CDCP1 on tumor cells (human, UniProt Q9H5V8 30-836) (assay: cell-based or functional assay).
T2 sequence (looked up): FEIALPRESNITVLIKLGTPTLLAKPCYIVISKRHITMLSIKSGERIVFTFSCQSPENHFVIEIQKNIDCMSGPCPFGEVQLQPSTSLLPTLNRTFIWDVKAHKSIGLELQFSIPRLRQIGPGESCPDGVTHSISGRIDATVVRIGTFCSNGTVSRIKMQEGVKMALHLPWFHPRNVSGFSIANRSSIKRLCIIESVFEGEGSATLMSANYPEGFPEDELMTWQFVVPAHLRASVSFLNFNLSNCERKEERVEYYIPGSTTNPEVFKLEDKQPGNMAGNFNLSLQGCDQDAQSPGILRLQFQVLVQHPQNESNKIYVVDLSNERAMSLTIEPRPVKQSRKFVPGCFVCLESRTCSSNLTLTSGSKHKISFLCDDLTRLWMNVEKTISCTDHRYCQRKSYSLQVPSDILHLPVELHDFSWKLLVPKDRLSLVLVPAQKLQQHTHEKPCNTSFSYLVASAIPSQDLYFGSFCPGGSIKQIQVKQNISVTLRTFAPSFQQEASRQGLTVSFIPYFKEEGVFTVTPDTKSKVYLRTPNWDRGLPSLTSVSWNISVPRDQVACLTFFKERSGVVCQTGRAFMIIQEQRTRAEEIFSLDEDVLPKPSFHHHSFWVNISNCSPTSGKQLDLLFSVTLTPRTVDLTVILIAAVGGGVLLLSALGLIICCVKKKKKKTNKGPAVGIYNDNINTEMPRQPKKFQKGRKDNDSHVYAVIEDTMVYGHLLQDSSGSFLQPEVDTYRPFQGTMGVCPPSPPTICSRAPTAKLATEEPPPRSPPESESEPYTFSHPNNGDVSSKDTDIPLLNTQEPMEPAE
In the case of B10, the “IC50 (nM), killing of HCT116 cells (120 h), CellTiter-Glo” value (shortened to “IC50 (nM), killing of HCT116 cells”) is reported as 10.6 nM, the “IC50 (nM), killing of MDA-MB-231 cells (120 h), CellTiter-Glo” value (from here on “IC50 (nM), killing of MDA-MB-231 cells”) is reported as greater than 40 nM and the “IC50 (nM), killing of PC3 cells (96 h), CellTiter-Glo” value (“IC50 (nM), killing of PC3 cells” for short) is reported as 0.0205 nM. With B11 the “IC50 (nM), killing of HCT116 cells” value was 11.4 nM, the “IC50 (nM), killing of MDA-MB-231 cells” value was greater than 200 nM and the “IC50 (nM), killing of PC3 cells” value was 0.0164 nM. For B12, the “IC50 (nM), killing of HCT116 cells” value was 2.33 nM, the “IC50 (nM), killing of MDA-MB-231 cells” value was greater than 40 nM and the “IC50 (nM), killing of PC3 cells” value was 0.0119 nM. In the case of B13, the “IC50 (nM), killing of HCT116 cells” value is reported as 11.7 nM, the “IC50 (nM), killing of MDA-MB-231 cells” value is reported as greater than 200 nM and the “IC50 (nM), killing of PC3 cells” value is reported as 0.014 nM. B14 was tested, and the “IC50 (nM), killing of HCT116 cells” value was 13 nM, the “IC50 (nM), killing of MDA-MB-231 cells” value was greater than 40 nM and the “IC50 (nM), killing of PC3 cells” value was 0.0184 nM.
